Reference: publication PMC7746858

Biological target: human complement C1q (human)
Assay: ELISA

## construct HLZ (6D8 heavy and light chains, C-terminal ZE3 fusion, no epitope tag) (antibody)
  fold lower C1q binding than HLZd: 10 fold
